Measurements: US20140056907A1 (Regeneron, published 2014)
Each block holds one binder with its values, some of them ahead of it.

Assays:
human ASIC1 [1] = biological target: T1, human ASIC1 (human, UniProt P78348 1-528); assay: cell-based or functional assay
T1 sequence: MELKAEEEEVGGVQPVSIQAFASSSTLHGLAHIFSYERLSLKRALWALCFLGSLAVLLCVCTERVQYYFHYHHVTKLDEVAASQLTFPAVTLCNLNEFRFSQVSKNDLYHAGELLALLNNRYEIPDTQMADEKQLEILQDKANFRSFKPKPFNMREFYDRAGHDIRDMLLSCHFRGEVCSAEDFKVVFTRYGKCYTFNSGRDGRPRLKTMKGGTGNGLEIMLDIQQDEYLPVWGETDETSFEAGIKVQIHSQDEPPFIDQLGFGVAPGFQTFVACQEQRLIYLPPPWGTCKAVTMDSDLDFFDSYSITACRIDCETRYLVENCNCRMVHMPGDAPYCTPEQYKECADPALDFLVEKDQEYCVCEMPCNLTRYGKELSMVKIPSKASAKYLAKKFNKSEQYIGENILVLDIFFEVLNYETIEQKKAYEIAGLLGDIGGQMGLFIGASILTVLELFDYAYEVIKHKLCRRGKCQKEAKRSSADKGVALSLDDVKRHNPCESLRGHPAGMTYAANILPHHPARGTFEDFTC

human ASIC1 [2] = biological target: T1, human ASIC1; assay: cell-based or functional assay; remark: listed apart in the source
human ASIC1 [3] = biological target: T1, human ASIC1; assay: FACS titration, 3T3/hASIC1 cells
human ASIC3 = biological target: T2, human ASIC3 (human, UniProt Q9UHC3 1-531); assay: FACS, 3T3/hASIC3 cells, 10 nM antibody
T2 construct: whole, on cells; Expressed on 3T3 cells (3T3/hASIC3) or HEK293 cells (HEK/hASIC3-QCells); also called hASIC3
T2 sequence (looked up): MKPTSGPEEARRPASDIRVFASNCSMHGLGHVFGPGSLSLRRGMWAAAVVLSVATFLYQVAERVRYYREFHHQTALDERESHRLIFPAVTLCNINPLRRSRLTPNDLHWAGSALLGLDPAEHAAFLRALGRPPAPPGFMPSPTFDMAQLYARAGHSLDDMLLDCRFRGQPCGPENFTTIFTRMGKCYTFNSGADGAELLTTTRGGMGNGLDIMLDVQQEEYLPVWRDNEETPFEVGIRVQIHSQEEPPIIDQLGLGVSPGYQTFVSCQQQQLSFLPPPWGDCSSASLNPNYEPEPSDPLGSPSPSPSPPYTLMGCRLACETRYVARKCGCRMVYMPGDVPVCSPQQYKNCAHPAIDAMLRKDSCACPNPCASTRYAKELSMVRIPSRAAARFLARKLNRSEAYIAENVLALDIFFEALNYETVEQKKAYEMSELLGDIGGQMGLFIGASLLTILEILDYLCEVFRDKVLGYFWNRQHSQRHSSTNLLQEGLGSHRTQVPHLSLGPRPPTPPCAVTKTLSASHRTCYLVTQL
Source text: For these experiments, four cell lines were constructed: (a) a mouse fibroblast 3T3 cell line stably transfected to overexpress full length human ASIC3 (3T3/hASIC3; amino acids 1-531 of NCBI accession number NP_{—}004760.1), (b) a 3T3 cell line stably transfected to co-express full length human ASIC1a and human ASIC3 (3T3/hASIC1/3; amino acids 1-528 of NCBI accession number NP_{—}001086.2 and amino acids 1-531 of NCBI accession number NP_{—}004760.1), (c) […] a stably transfected 3T3 cell line expressing the full-length mouse ASIC3 channel (3T3/mASIC3; amino acids 1-530 of NCBI accession number NP_{—}892045.2), and (d) a 3T3 cell line stably transfected to co-express full length mouse ASIC1a and mouse ASIC3 (3T3/mASIC1/3; amino acids 1-526 of NCBI accession number NP_{—}033727 and amino acids 1-530 of NCBI accession number NP_{—}892045.2). Antibody binding was determined using flow cytometry (FACS).
To perform the FACS binding experiments, adherent cells were collected with cold Millipore Accutase 3-5 minutes, spun and resuspended in ice-cold FACS buffer (PBS, 2% HI-FBS and 0.09% Na-azide). Anti-ASIC1 antibody at final concentrations of 10 nM was added for 20-30 minutes on ice. Cells were washed with 900 μL ice-cold FACS buffer, spun, and resuspended in 100 μL ice-cold FACS buffer. A secondary antibody which recognizes human Fc (Jackson Immuno Research, #109-136-098) and is conjugated to allophycocyanin, was then added to the cell mixture at a final concentration of 2.5 ug/mL. After incubating for 20 minutes on ice, the cells were washed and resuspended in FACS buffer, then sorted and analyzed on a flow cytometer (FACSCanto II, BD Biosciences, San Jose, Calif.) to determine relative binding by the candidate antibodies to the tested cell lines. Histograms of cells stained with anti-ASIC1 antibodies were compared with those of cells stained with secondary antibody alone. Percentage of ASIC1 signal over secondary antibody alone was calculated using FlowJo software (Tree Star, Ashland, Oreg.).

apparent IC50, human ASIC1 current, Q-Patch (human ASIC1 [1]): ≤ 10 nM
Current inhibition (%) at 100 nM antibody, Q-Patch, pH 6.0 (human ASIC1 [2]): 100%
EC50 (human ASIC1 [3]): 5.4 nM
binding result (human ASIC3): binds
B1: H3M7102N (antibody, V domains shown)
VH: EVQLLASGGGLVQPGGSLRLSCAASGFTFSSFAMSWVRQAPGKGLEWVSGISGSGGSTYYADSVKGRFTISRDNSKNTLYLQMNSLRAEDTAAYYCAKEAYKWQPWGQGIRVTVSS
VL: DIQMTQSPSTLSASVGDRVSITCRASQSISSWLAWYQQKPGKAPKLLIYKASNLDSGVPSRFSGSGSGTDFTLTISSLQPDDFATYYCQQYNSYSYTFGQGTKLEIK
notes: Chimeric: human variable, mouse constant domains; H3M prefix marks the Fc, isotype not spelled out

apparent IC50, human ASIC1 current, Q-Patch (human ASIC1 [1]): > 10 nM
Current inhibition (%) at 100 nM antibody, Q-Patch, pH 6.0 (human ASIC1 [2]): 85%
EC50 (human ASIC1 [3]): 2.6 nM
binding result (human ASIC3): binds
B2: H3M6726N (antibody, V domains shown)
VH: EVQLLESGGVLVQPGGSLRLSCAASGFNFNNYDMSWVRQAPGKGLEWVSVISASGRNTYYADSVKGRFTISRDNSKISLYLQMNSLRPEDTAVYYCAKDHLVHYYYGMDVWGQGTTVTVSS
VL: DIMMTQSPLSLSVTPGEPASISCRSSQSLLHSNGYNYLDWYLQKSGQSPHLLIYLGSNRASGVPDRFSGSGSGTDFTLKISRVEAEDGGVYYCMQALQTPRTFGQGTKVEIK
notes: as for B1
